Experimental findings from patent US20130309670 are described below.

Data set [1] concerns Il2rg ZFN-1 (zinc finger-FokI nuclease) (synthetic construct). The data set can be described thus: cell_activity. The conditions noted are these: pair ZFN-1+ZFN-2, clones with ZFN cleavage (6/192) in mouse F1H4 ES cells without LTVEC; 6.9% among non-targeted clones with LTVEC; 6 bp spacer.
Data set [2] concerns Il2rg ZFN-2 (zinc finger-FokI nuclease) (synthetic construct). The data set can be described thus: cell_activity. The conditions noted are these: pair ZFN-1+ZFN-2, clones with ZFN cleavage (6/192) in mouse F1H4 ES cells without LTVEC; 6.9% among non-targeted clones with LTVEC; 6 bp spacer.

In the case of “AGCTCCAAGGTCCTC (double strand) [Il2rg exon 1 ZFN-1 half-site (sense strand)]”, the activity in data set [1] was 3.1%.

In the case of “GTCTTCATTCGCACT (double strand) [Il2rg exon 1 ZFN-2 half-site (antisense strand)]”, the activity in data set [2] stood at 3.1%.
